In patent US20230055235, “ANTI-CANCER IMMUNOTHERAPEUTIC COMPOSITION FOR TREATING CANCER” (INTEROLIGO CORPORATION., published 2023):

Biological target: PD-L1 (programmed death-ligand 1) (UniProt Q9NZQ7 Q9NZQ7:19-238)
Experiment: inhibition; PD-1/PD-L1 binding ELISA
Description: PD-1/PD-L1 binding inhibition of the synthetic fragment aptamer was determined by conducting a purified protein-based test. Purified protein-based PD-1/PD-L1 binding inhibition test (BPS, USA) was conducted by ELISA method based on horseradish peroxidase (HRP). First, purified PD-L1 protein according to the product manual was fixed on a 96 well plate, and then each well was washed with Immuno Buffer 1 for a total of 3 times in order to remove unbound PD-L1 protein. Aptamers were prepared in a selection buffer for each experimental concentration and slowly cooled from 95° C. to 37° C. by 0.1° C. per second. 5 μL of the aptamer was added to the well to which PD-L1 protein was fixed, followed by adding 20 μL of Biotin-bound PD-1 protein prepared according to the corresponding instructions to each well again. […] After adding 100 μL of the HRP substrate mixture to the well, from which the supernatant was removed, a fluorescent intensity was measured using a luminometer so as to determine the inhibition of PD-1/PD-L1 binding. IC₅₀ (50% inhibitory concentration) was calculated using the online tool.
Aptamer PD-1/PD-L1 binding inhibitory activity described in Table 6 of Example 1.3.1 was measured in the same manner as in Example 1.2.2.

Sequence of PD-L1 (programmed death-ligand 1) (Q9NZQ7 19-238, one chain of several): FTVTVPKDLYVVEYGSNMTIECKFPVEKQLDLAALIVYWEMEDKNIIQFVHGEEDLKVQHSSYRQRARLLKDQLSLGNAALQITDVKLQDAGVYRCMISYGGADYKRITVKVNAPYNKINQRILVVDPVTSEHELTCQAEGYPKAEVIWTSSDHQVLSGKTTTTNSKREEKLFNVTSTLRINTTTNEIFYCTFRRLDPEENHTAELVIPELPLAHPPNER

AAGTTTTTGATTGTACCTTAGTG (ssDNA, Bz-dU at every n) [PL021] gave an IC50 of 27.7 nM.
